According to patent publication US20150368333A1 (GlaxoSmithKline, published 2015):

Key:
[1] = biological target: T1, TNF alpha (species not given) (UniProt P01375 77-233, limits assumed); experiment: cell-based or functional assay
[2] = biological target: T1, TNF alpha (species not stated in the …); experiment: cell-based or functional assay; remark: listed apart in the source
recombinant human TNFα [3] = biological target: T2, recombinant human TNFα (human, UniProt P01375 77-233); experiment: Biacore T100 SPR, antibody captured on Protein A, TNF alpha as analyte, 37 C
T2 construct: also called human TNF alpha; tumour necrosis factor alpha
T2 sequence (P01375 77-233 limits assumed): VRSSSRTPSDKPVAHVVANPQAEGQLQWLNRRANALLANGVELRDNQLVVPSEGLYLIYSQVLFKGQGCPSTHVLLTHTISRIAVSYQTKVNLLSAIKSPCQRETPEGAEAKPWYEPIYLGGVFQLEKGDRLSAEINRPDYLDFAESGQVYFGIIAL

[4] = biological target: T3, recombinant cynomolgus TNF alpha (cynomolgus, UniProt P79337 77-233); experiment: as above
T3 construct: also called Cyno TNFα
T3 sequence (P79337 77-233 limits assumed): as the sequence (P01375 77-233 limits assumed) above, with L37V, R44T, T72N, R138L counted along it

recombinant human TNFα [5] = biological target: T2, recombinant human TNFα; experiment: Biacore T100 SPR, antibody captured on anti-human IgG, TNF alpha as analyte, 37 C
[6] = biological target: T3, recombinant cynomolgus TNF alpha; experiment: as above
[7] = biological target: T1, TNF alpha (species not stated in the …); experiment: ProteOn SPR reverse format, biotinylated TNF alpha captured on neutravidin (NLC) chip, antibody as analyte, 1:1 model, apparent kinetics
recombinant human FcRn [8] = biological target: T4, recombinant human FcRn (human, UniProt P55899 24-297; P61769 21-119, limits assumed); experiment: SPR, antibody amine-coupled on GLM chip, FcRn as analyte, equilibrium model, pH 6.0
T4 construct: also called Human FcRn receptor
T4 sequence (P55899 24-297 limits assumed, chain 1 of 2): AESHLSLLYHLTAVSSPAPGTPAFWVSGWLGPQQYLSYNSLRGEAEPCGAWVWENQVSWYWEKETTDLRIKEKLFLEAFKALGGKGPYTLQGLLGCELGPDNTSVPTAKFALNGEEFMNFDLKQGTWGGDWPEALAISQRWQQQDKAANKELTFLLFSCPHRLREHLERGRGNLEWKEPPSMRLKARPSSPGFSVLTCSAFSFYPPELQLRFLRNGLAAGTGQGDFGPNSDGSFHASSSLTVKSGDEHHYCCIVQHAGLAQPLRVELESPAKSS
T4 sequence (P61769 21-119 limits assumed, chain 2 of 2): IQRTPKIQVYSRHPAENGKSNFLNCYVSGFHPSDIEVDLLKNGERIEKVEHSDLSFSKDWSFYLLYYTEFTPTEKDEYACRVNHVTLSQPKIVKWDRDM

[9] = biological target: T5, recombinant cynomolgus FcRn (cynomolgus, UniProt Q8SPV9 24-297; Q8SPW0 21-119, limits assumed); experiment: as above
T5 construct: Construct not described; beta-2-microglobulin not mentioned; also called cyno FcRn

mouse FcRn [10] = biological target: T6, mouse FcRn (mouse, UniProt Q61559 22-297; P01887 21-119, limits assumed); experiment: as above
T6 construct: Construct not described; also called Mouse FcRn receptor
T6 sequence (looked up) 1: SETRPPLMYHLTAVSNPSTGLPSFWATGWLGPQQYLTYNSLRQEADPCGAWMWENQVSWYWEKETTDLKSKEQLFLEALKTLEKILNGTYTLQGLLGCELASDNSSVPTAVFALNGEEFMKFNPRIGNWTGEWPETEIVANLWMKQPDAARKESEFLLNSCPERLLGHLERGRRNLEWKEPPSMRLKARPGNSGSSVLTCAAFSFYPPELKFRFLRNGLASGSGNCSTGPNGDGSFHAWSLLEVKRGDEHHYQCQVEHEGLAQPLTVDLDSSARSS
T6 sequence (looked up) 2: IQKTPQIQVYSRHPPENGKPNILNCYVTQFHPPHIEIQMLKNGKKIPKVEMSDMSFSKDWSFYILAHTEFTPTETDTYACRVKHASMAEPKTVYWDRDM

rat FcRn [11] = biological target: T7, rat FcRn (rat, UniProt P13599 23-298; P07151 21-119, limits assumed); experiment: as above
T7 construct: Construct not described; also called Rat FcRn receptor
T7 sequence (looked up) 1: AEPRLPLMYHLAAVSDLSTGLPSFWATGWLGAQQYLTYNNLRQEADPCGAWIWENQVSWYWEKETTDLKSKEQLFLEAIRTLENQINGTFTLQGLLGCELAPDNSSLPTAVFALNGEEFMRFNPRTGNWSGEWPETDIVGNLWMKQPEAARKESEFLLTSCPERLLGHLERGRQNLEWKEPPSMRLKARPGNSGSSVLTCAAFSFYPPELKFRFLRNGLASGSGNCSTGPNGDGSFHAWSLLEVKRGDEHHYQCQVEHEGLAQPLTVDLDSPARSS
T7 sequence (looked up) 2: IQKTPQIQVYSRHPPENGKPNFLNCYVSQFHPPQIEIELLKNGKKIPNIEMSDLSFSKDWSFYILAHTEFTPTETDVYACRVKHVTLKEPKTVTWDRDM

recombinant human FcRn [12] = biological target: T4, recombinant human FcRn; experiment: SPR, antibody amine-coupled on GLM chip, FcRn as analyte, equilibrium model, pH 7.4
[13] = biological target: T5, recombinant cynomolgus FcRn; experiment: as above
mouse FcRn [14] = biological target: T6, mouse FcRn; experiment: as above
rat FcRn [15] = biological target: T7, rat FcRn; experiment: as above
recombinant human FcRn [16] = biological target: T4, recombinant human FcRn; experiment: SPR, antibody amine-coupled on GLM chip, FcRn as analyte, equilibrium model, pH 6.0; pH 6.0
[17] = biological target: T5, recombinant cynomolgus FcRn; experiment: as above
mouse FcRn [18] = biological target: T6, mouse FcRn; experiment: as above
rat FcRn [19] = biological target: T7, rat FcRn; experiment: as above

T1 sequence (P01375 77-233 limits assumed): as the sequence (P01375 77-233 limits assumed) above

B1: BPC1500 (antibody, V domains shown)
VH: EVQLVESGGGLVQPGRSLRLSCAASGFTFDDHALHWVRQAPGKGLEWVSAITWNSGHIDYADSVEGRFTISRDNAKNSLYLQMNSLRAEDTAVYYCAKVRYLSTASSLDYWGQGTLVTVSS
VL: not shown
notes: also called CDR variant cb2-44, wild-type Fc; improved anti-TNFα antibody
IC50, L929 neutralisation assay (cell viability) [1]: 0.13 µg/mL | IC50, TNFα-induced IL-6 release assay (whole blood) [2]: 0.11 nM | Kd (recombinant human TNFα [3]): 0.0156 nM | koff (recombinant human TNFα [3]): 4.19e-05 s⁻¹ | kon (recombinant human TNFα [3]): 2.68e+06 M⁻¹ s⁻¹ | Kd [4]: 0.015 nM | koff [4]: 3.51e-05 s⁻¹ | kon [4]: 2.34e+06 M⁻¹ s⁻¹ | Kd (recombinant human TNFα [5]): 0.0157 nM | koff (recombinant human TNFα [5]): 7.07e-05 s⁻¹ | kon (recombinant human TNFα [5]): 4.51e+06 M⁻¹ s⁻¹ | Kd [6]: 0.0467 nM | koff [6]: 0.000209 s⁻¹ | kon [6]: 4.48e+06 M⁻¹ s⁻¹ | Kd [7]: 0.015 nM | koff [7]: 3e-05 s⁻¹ | kon [7]: 2.06e+06 M⁻¹ s⁻¹

B2: BPC2604 (antibody, human IgG1, kappa)
heavy: QVTLRESGPALVKPTQTLTLTCTFSGFSLSTSGMGVSWIRQPPGKGLEWLAHIYWDDDKRYNPSLKSRLTISKDTSRNQVVLTMTNMDPVDTATYYCARRETVFYWYFDVWGRGTLVTVSSASTKGPSVFPLAPSSKSTSGGTAALGCLVKDYFPEPVTVSWNSGALTSGVHTFPAVLQSSGLYSLSSVVTVPSSSLGTQTYICNVNHKPSNTKVDKKVEPKSCDKTHTCPPCPAPELLGGPSVFLFPPKPKDTLYITREPEVTCVVVDVSHEDPEVKFNWYVDGVEVHNAKTKPREEQYNSTYRVVSVLTVLHQDWLNGKEYKCKVSNKALPAPIEKTISKAKGQPREPQVYTLPPSRDELTKNQVSLTCLVKGFYPSDIAVEWESNGQPENNYKTTPPVLDSDGSFFLYSKLTVDKSRWQQGNVFSCSVMHEALHNHYTQKSLSLSPGK
light: DIVLTQSPSSLSASVGDRVTITCKASQSVDYDGDSYMNWYQQKPGKAPKLLIYAASNLESGIPSRFSGSGSGTDFTFTISSLQPEDIATYYCQQSNEDPPTFGQGTKVEIKRTVAAPSVFIFPPSDEQLKSGTASVVCLLNNFYPREAKVQWKVDNALQSGNSQESVTEQDSKDSTYSLSSTLTLSKADYEKHKVYACEVTHQGLSSPVTKSFNRGEC
notes: also called pascolizumab-YTE; Pasco-YTE
Kd (recombinant human FcRn [8]): 98 nM | Kd [9]: 92.1 nM | Kd (mouse FcRn [10]): 53.4 nM | Kd (rat FcRn [11]): 66 nM | Kd (recombinant human FcRn [12]): 11.6 µM | Kd [13]: 11.1 µM | Kd (mouse FcRn [14]): 2160 nM | Kd (rat FcRn [15]): 4.33 µM

B3: Pascolizumab (antibody, human IgG1, kappa)
heavy: not shown
light: B2 light
notes: IgG1, unmodified Fc; also called anti-IL-4 antibody
Kd (recombinant human FcRn [16]): 541 nM | Kd [17]: 505 nM | Kd (mouse FcRn [18]): 205 nM | Kd (rat FcRn [19]): 228 nM
